B1: B-box zinc finger protein 22 (Arabidopsis thaliana (Mouse-ear cress)), Q9SYM2 (parent)
chain: MKIQCNVCEAAEATVLCCADEAALCWACDEKIHAANKLAGKHQRVPLSASASSIPKCDICQEASGFFFCLQDRALLCRKCDVAIHTVNPHVSAHQRFLLTGIKVGLESIDTGPSTKSSPTNDDKTMETKPFVQSIPEPQKMAFDHHHHQQQQEQQEGVIPGTKVNDQTSTKLPLVSSGSTTGSIPQWQIEEIFGLTDFDQSYEYMENNGSSKADTSRRGDSDSSSMMRSAEEDGEDNNNCLGGETSWAVPQIQSPPTASGLNWPKHFHHHSVFVPDITSSTPYTGSSPNQRVGKRRRRF
partner: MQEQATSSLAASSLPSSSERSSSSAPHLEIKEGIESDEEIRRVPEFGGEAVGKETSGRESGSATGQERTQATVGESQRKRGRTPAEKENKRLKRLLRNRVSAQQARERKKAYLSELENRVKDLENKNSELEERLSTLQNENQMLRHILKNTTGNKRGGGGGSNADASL

Variants of: B1
Details: with hy5_arath HY5, O24646

Variant	effect of a mutation on the interaction
D81A	disrupting interaction
D72A	disrupting interaction

Reference: IntAct's records for PubMed 18796637
